Data as given in the DeepSol protein solubility set.

Experiment: soluble on expression in E. coli; label from the status in PepcDB or PDB records

Question: Which “soluble on expression in E. coli” value does the source give for “MSQSLFSQPLNVINVGIAMFSDDLKKQHVEVTQLDWTPPGQGNMQVVQALDNIADSPLADKIAAANQQALERIIQSHPVLIGFDQAINVVPGMTAKTILHAGPPITWEKMCGAMKGAVTGALVFEGLAKDLDEAAELAASGEITFSPCHEHDCVGSMAGVTSASMFMHIVKNKTYGNIAYTNMSEQMAKILRMGANDQSVIDRLNWMRDVQGPILRDAMKIIGEIDLRLMLAQALHMGDECHNRNNAGTTLLIQALTPGIIQAGYSVEQQREVFEFVASSDYFSGPTWMAMCKAAMDAAHGIEYSTVVTTMARNGVEFGLRVSGLPGQWFTGPAQQVIGPMFAGYKPEDSGLDIGDSAITETYGIGGFAMATAPAIVALVGGTVEEAIDFSRQMREITLGENPNVTIPLLGFMGVPSAIDITRVGSSGILPVINTAIAHKDAGVGMIGAGIVHPPFACFEKAILGWCERYGV” here?
Answer: The value was “soluble”.

Question: For “MSQTLKQLAMAKMAGFRHKTVVVPEWEGVKVVLREPSGEAWLRWQEVVKGGGDDENVSVSEKAHRNLCADVVLFIDVLCDTDKQPVFSVDEEEQVREIYGPVHSRLLKQALDLINNADEAREKSQPPA”, which “soluble on expression in E. coli” value is on record?
Answer: The value was “not soluble”.

Question: Which “soluble on expression in E. coli” value does the source give for “MSQTPPPKDGKNPEAMEVEDAIDEEILKMSTEDLKSRTHLLDNEIRIMRSEVQRINHSATTLKERIKENTERIKVNKTLPYLVSNVVELLDLEDNTEEEGANVDLDAQKTKCAVIKTSTRATYFLPVVGLVDPDELKPGDLVGVNKDSYLILEKLPAEYDSRVKAMEVDERPTEQYSDIGGCDKQIQELIEAVVLPMTHKDRFVNLGIHPPKGVLMYGPPGTGKTMMARAVAAQTKSTFLKLAGPQLVQMFIGDGAKLVRDAFALAKEKAPAIIFIDELDAIGTKRFDSEKAGDREVQRTMLELLNQLDGFQPNDDIKVIAATNRIDVLDPALLRSGRLDRKIELPHPNEDARARIMQIHSRKMNVNKDVNFEELARCTDDFNGAQCKAVCVEAGMIALRRDATEILHEDFMDAILEVQAKKKASLNYYA” here?
Answer: Its value is “not soluble”.

Question: With “MSQVTEQSVRFQTALASIKLIQASAVLDLTEDDFDFLTSNKVWIATDRSRARRCVEACVYGTLDFVGYPRFPAPVEFIAAVIAYYVHPVNIQTACLIMEGAEFTENIINGVERPVKAAELFAFTLRVRAGNTDVLTDAEENVRQKLRAEGVM” as the sequence, how does the “soluble on expression in E. coli” value read?
Answer: The value was “soluble”.

Question: With “MSQYSENIIIGAGAAGLFCAAQLAKLGKSVTVFDNGKKIGRKILMSGGGFCNFTNLEVTPAHYLSQNPHFVKSALARYTNWDFISLVAEQGITYHEKELGQLFCDEGAEQIVEMLKSECDKYGAKILLRSEVSQVERIQNDEKVRFVLQVNSTQWQCKNLIVATGGLSMPGLGATPFGYQIAEQFGIPVIPPRASLVPFTYRETDKFLTALSGISLPVTITALCGKSFYNQLLFTHRGISGPAVLQISNYWQPTESVEIDLLPNHNVEEEINQAKQSSPKQMLKTILVRLLPKKLVELWIEQGIVQDEVIANISKVRVKNLVDFIHHWEFTPNGTEGYRTAEVTMGGVDTKVISSKTMESNQVSGLYFIGEVLDVTGWLGGYNFQWAWSSAYACALSISRQ” as the sequence, how does the “soluble on expression in E. coli” value read?
Answer: The value was “soluble”.

Question: With “MSRATYIIGALAGSAVVAYVCDKVISDDKLFGGTTPGTITNKEWGAATEERLQAWPRVAGPPVVMNPISRQNFIVKSRPE” as the sequence, how does the “soluble on expression in E. coli” value read?
Answer: The value was “not soluble”.

Question: Which “soluble on expression in E. coli” value does the source give for “MSRDIDYGNLMHTAMRGLIKTVLADVAQHGLPGAHHFFITFDTRYEGVQLADWLADRYPGEMTIVMQHWYENLDVGEDGFAITLNFGDSPEPLYIPYDAIRTFVDPSVEFGLRFESPDFDEDDEDDIEVEEEPDAPKPDAEVVSLDSFRKPLEHHHHHH” here?
Answer: Its value is “soluble”.

Question: For “MSREANPFKKMPTILMPDELMAKALRRGEKVANEMRQKELPWLLKARFVEEHKVRTIASVVADNLQKVIDKTPPVRKLPKFYQEMVEVLVGIDDFKKSMGAFKWASELVRKLGNEYARKIRKARTPQQAGKLRKEFVGRVKSILEQIHPEMAFVAVAREKLKDLPTFKDLPTVVIAGYPNVGKSTLLKKLTGADVEINSYPFTTKGINVGYIGEIQMVDTPGLLDRPLYERNDIELQAILALNYLANLILFIIDASEFCGYTIEEQINLLKEIKDLFKAPIVVAINKIDLVDEERVKEIEEKLKEVGIEEILKISADKDIGLDELKERLKKIAIKEFLKDKDAENKELECLEHHHHHH”, which “soluble on expression in E. coli” value is on record?
Answer: The value was “soluble”.

Question: With “MSRHPLKIVIAGAGIGGLAAAACLKAAGFEVELYERARELRAVGSALSLMPNALTALERVGVRPDLTRAQAFDSLRFLTRRGRPIRAIDFGGLARQLGQPSLAIHRASLQQALLEQARDCRIELGVSATGYLRHADGEGVTVLCSDGREVHADVLIGADGFNSAIRATMTGPERPTDWHYVIWRATPAFRHPKVTPGYVAHYWGRGQRFGLADIGEGNVYWWGTRNMPAEQAKDWRGGKAGIQRLYAGWADEVQAVIEATPEADISSLPAQDRPFLERWGDGPVTLLGDAAHPMLTSLGQGAAIAIEDAAVLAHCLATIDDPQAALRAYENRRRDRARAMVETSRALSRIEQLEHPLRTVARDLYFRFAPERTFARQNELALTFPGVELEHHHHHH” as the sequence, how does the “soluble on expression in E. coli” value read?
Answer: Its value is “not soluble”.

Question: With “MSRLPLLLLSVLLATPAAQASDCPDLALVLALDSSLSIDRAEFALQAEGYAEAFRSPAVQAALAAAGTVDVAAVVWSDGAAPPARLGWQRIAAPEDARRLAVRLAALERVAPGRTGVGGGLAAALEMLAGHGCAGRRLVNLSGDGRETLAPRMGLRGQLMRARAEAEALGATVNALAVTDEEADLPDWFRSHVIVGPGAFVMETREFRGFAEAVARKLVREIAPPALAAGRPGLPPHRLTPGGRDHPARRSLEHHHHHH” as the sequence, how does the “soluble on expression in E. coli” value read?
Answer: Its value is “not soluble”.

Question: Which “soluble on expression in E. coli” value does the source give for “MSRNDLFKQPLDTINVGIDFIHEDMKKQGIPSHQVNWAPPANGDPELLKLLDQLKNPTLYEKIQQANEEAVTRIIQSKPILVGFDKAINVMPDMTETTILHAGPPITYENMCGPMKGAVQGALVFEGLAKDLADADRVARSGAITFSPCHEHDAVGSMAGVTSPNMYVHIIKNETYGNTAFTNLSEQLAKVLRFGANDQSVVDRLIWMRDVLGPLLHDAMTFCPEGIDLRLMLSQALHMGDECHNRNVAGSTLLVQALTPYMVQTDFSREQLKEVFEFLGSSDYFSGPTWMGAAKCALDAGHNVENSTIVTTMCRNGVEFGIRVSGIGGNHWFTGPAQRVIGPMFAGYTQEDAGLDMGDSAITETYGVGGFAMAAAPAIVPLVGGTVAEALNYSKEMLEITTKENPNVTIPVLDFMGIPTGIDVLKVLETGMLPVINTAIAHKEPGIGMIGAGLTNPPANVFNEALKALVATIN” here?
Answer: Its value is “soluble”.

Question: Which “soluble on expression in E. coli” value does the source give for “MSRPPLPPFTRETATQKVRMAEDAWNSRDPARVSLAYTPDSRWRNRAEFLQGRDAIVEFLTRKWAKEHDYRLIKDLWAFDGRFIAVRFQYEWRDEAGLWYRSYGNEQWEFDDDGLMRRREASINDVAISEGDRRFHWPAPGPRPDDVPGLAADPFLEHHHHHH” here?
Answer: Its value is “soluble”.

Question: Which “soluble on expression in E. coli” value does the source give for “MSRQPLSREDTAILVPALNEALRIREVVTDALTYCSHVIVIDDGSDDGTAECIAGMPVTLIRHPQRMGKGAALRSGFAQAQRLGMRAVMTMDGDGQHKAADFPRLLAAANRHPGCVIIGARMRKRATQPTIRRIGNDFGDWGIAWGCGFRLIDSQSGQRLYPASVFTLPNVPGEGFVFEAQLLISAARQAGARVVAVPIETRYAGTSPGTFRKSHFRLVRDLWNITSHVVKQVWAYGHVWREYRRVRANPVIVDDPDGEFATVPAVTKSNHSSLEHHHHHH” here?
Answer: Its value is “not soluble”.

Question: For “MSRSQVTGKEFVLRCVFNDVSNMNDNDMRFGTVEEYFNVPWIFQIQRNNGNLGIYLRCTNLKDQEMWSIFSELELKLVSVYSDTRDQKCKIDMCFGHDSGKFYSSYGWSEFISWNELETSFMEAGSITVEARVLINKSIGFYTPKLMDFDEKMMEYSDIVVLVNGQRFYLLKKFLAFHSTFFESLFLGGFYEAKLAEVPLYDIDVDDFQKFLEVLYGFPVINVIVPINKLTLQQSEMLNACAQYAQTGSQKLTREANYVITEVRLF”, which “soluble on expression in E. coli” value is on record?
Answer: Its value is “not soluble”.

Question: With “MSRVGVMVLGPAGAGKSTFCNSIISHMQTVGRRAHIVNLDPAAEATKYEFTIDIRDLISLDDVMEEMDLGPNGALIYCFEYLLKNLDWLDEEIGDFNDEYLIFDCPGQIELYTHIPVLPNIVRHLTQQLNFNLCATYLLEAPFVIDSSKFFSGALSAMSAMILLELPHINVLSKLDLIKGDINKKKLKRFLNPDAMLLMETEGMNQASNPKFLRLNQCIANLVDDFGMVQFLPLESNNPDSIETILSYVDDITQWAEGQEQKEPNDQIDVEE” as the sequence, how does the “soluble on expression in E. coli” value read?
Answer: The value was “soluble”.

Question: For “MSRVPRTFAGWTEQMSSSGKMYYYNKKTEISQWDKPAEWPAEGGSAERDKPKGGVNEKPRFAEDRYNEYIGQLSSSSSCFWRQIGIFSLSSSSKYYLCASRFLPLSHSLLQFLREIRRRL”, which “soluble on expression in E. coli” value is on record?
Answer: Its value is “not soluble”.

Question: Which “soluble on expression in E. coli” value does the source give for “MSSAYQLVIFDWEGTIADTLGVILHTVATEAKMLGFGDIDPYQARKYVDLGLVQAVKKTLPNLTAGQQEDLLQAVQSAMISRPTEVRLIPGVLEFIQQLHQAKVDLAIATNKGHNSLIRALQATELDQLFKVTRSAGQVPAKPCPQMLEEIMEEFGRDPSSTLMIGDSTTDMEMAKRINVNAIGMDFYHQQEDALKAAGALAVFDDYKLLSAYLMLPEA” here?
Answer: The value was “not soluble”.

Question: Which “soluble on expression in E. coli” value does the source give for “MSSDKFKLDTLFDDNDEIIEPDGADVKKRNVAYYYHKDVGHFHYGQLHPMKPQRLVVCNDLVVSYEMPKYMTVVESPKLDAADISVFHTEDYVNFLQTVTPKLGLTMPDDVLRQFNIGEDCPIFAGLWDYCTLYAGGSVEGARRLNHKMNDIVINWPGGLHHAKKSEASGFCYVNDIVLGILELLKYHKRVLYIDIDIHHGDGVQEAFNNSDRVMTVSFHRFGQYFPGSGSIMDKGVGPGKYFAINVPLMAAIRDEPYLKLFESVISGVEENFNPEAIVLQCGSDSLCEDRLGQFALSFNAHARAVKYVKSLGKPLMVLGGGGYTLRNVARCWALETGVILGLRMDDEIPGTSLYSHYFTPRLLRPNLVPKMNDANSAAYLASIEKETLACLRMIRGAPSVQMQNIVGIRLDEIEQIEENERLQKSSKSSIEYEVGKVSEKMEEECFVEEDSKPPSFPPGQDPRRIGQYWGYDRSGLAPPRSHSDVIEEAKYEDRDRRKDLNIPGIP” here?
Answer: The value was “not soluble”.

Question: With “MSSEPPPPPQPPTHQASVGLLDTPRSRERSPSPLRGNVVPSPLPTRRTRTFSATVRASQGPVYKGVCKCFCRSKGHGFITPADGGPDIFLHISDVEGEYVPVEGDEVTYKMCSIPPKNEKLQAVEVVITHLAPGTKHETWSGHVISS” as the sequence, how does the “soluble on expression in E. coli” value read?
Answer: Its value is “soluble”.

Question: With “MSSFQLQQLPSLPIKEVFKSLGVCDLLNLCRSSNKSRRLVKKSLKDITFTLKIVAEEKHYKIWLKEDFSKHKARIRAENSNGTSLFKNIRWLMHTFWVETVYLDCTNVEEGDVVKVVEYLKKEKPYYLKLYFECPMISDSLWQLMLNCEADVLIISVDREVKVTFDNVPLLFNCECIILHGVKFSEKGMNLLFKTWQSSKERTLQCVSLTRKLGPFWKKQANEKVVLKGIDVESVEKKRIFKVKKDGIKKSTTYNLVKNDGELATLKFDKQEICFHTENDR” as the sequence, how does the “soluble on expression in E. coli” value read?
Answer: The value was “not soluble”.

Question: With “MSSGFGGEKEEEITQKTAKSSEKAIVPKYNISDSYYKMVLPFKAGKARGLTTEQLNTRLDIDEFETGLMRLAQDSFSTDDYLFQEGQYLDEDTVLSWLARKKTGSDLKKAEKEDKNFKNEGLNPALPSSGSTEEKNESSPIYLASMLEHDYLVRKDKNSIQLGGVMIGLALNSVYYYREKTGDPQKEVEIKDSTLRQQGEKIAQEVINRLRKKDNLKNVPITVALYKQASKTSIVPGNFIAKTEVKAGSTDISNWDDINEKYVFYPADTTTAEKYPDDTEVFKRFKNSIEEYFPNYTGVVGTALYENDEMKKMKIDIPMQFYGKSEVVAFTQFLTGEVMDYYSKSSVDVEVNITSSDGQEAVIIRNAGDKEPTVHIYDLEHHHHHH” as the sequence, how does the “soluble on expression in E. coli” value read?
Answer: The value was “soluble”.

Question: For “MSSKNEQTPKVPAELDPLNETIFREQMYAIYQVCQYPSKEQYAEWAQTYQIQQRRIRKWFDNRRTRDRERRKRKGDDNEDSSEISKRGRVTCGLDYKNHEEESTDDFQDDIEELDNSQFEMAKVSSIRDELKDVKSESPPVMEQSFHLRTVQHVSTPRRDRIIPESQTLFVPAGCSLDYEKWTPAEFLQWTSNFLSSAQAMDIIKSQEISGDTMESFFDDPDFRKETGMPYGPFQTIKKHAATVINRFNGYE”, which “soluble on expression in E. coli” value is on record?
Answer: Its value is “not soluble”.
